Data as given in article PMC8812563 (Proceedings of the National Academy of Sciences of the …, 2022).

Biological target: T1, PHYTOCHROME-INTERACTING FACTOR 7 with Flash tag (35S::PIF7-Flash; 9xMyc-6xHis-3xFlag) (Arabidopsis thaliana, UniProt Q570R7 1-366)
T1 sequence (looked up): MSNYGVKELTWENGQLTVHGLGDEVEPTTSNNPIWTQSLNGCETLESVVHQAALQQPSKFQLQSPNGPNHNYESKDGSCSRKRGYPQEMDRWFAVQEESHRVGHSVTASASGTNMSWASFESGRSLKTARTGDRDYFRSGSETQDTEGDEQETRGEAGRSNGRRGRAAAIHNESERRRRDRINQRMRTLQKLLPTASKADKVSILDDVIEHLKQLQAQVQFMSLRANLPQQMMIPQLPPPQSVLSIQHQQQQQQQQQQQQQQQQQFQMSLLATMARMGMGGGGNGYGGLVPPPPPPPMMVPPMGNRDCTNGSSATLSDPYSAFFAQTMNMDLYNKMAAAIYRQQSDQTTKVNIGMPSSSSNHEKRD
Assay: co-IP

B1: ANGUSTIFOLIA3 / GRF-INTERACTING FACTOR 1 with GS^yellow tag (35S::AN3-GS^yellow) (natural protein, Arabidopsis thaliana, UniProt Q8L8A5 1-210, looked up)
chain: MQQHLMQMQPMMAGYYPSNVTSDHIQQYLDENKSLILKIVESQNSGKLSECAENQARLQRNLMYLAAIADSQPQPPSVHSQYGSAGGGMIQGEGGSHYLQQQQATQQQQMTQQSLMAARSSMLYAQQQQQQQPYATLQHQQLHHSQLGMSSSSGGGGSSGLHILQGEAGGFHDFGRGKPEMGSGGGGEGRGGSSGDGGETLYLKSSDDGN
Q: Does B1 bind?
A: binds
